Assay [1] deals with T1, C-terminal biotinylated human Hepcidin-25 (human, not fully specified; biotinylated via a Lysine residue coupled to the C-terminus via a Mini-PEG linker).
T1 construct: Captured on plates via Neutravidin in the ELISAs; also called C-terminal biotinylated hHepcidin; C-terminal biotinylated hepcidin (Bachem AG)
T1 peptide: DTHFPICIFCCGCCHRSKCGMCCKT
Put plainly: direct ELISA, hepcidin captured via Neutravidin. How it is done:
A “direct” ELISA was performed to verify the binding affinity and specificity of the selected Lcn2 muteins. Therefore, a constant concentration of 1 μg/ml C-terminal biotinylated hepcidin (Bachem AG, CH) was captured on the surface of a polystyrol plate (Greiner, GE) via Neutravidin (Thermo Scientific, 5 μg/ml). Two step dilution series of purified Lcn2 muteins were incubated with the captured hepcidin […] at room temperature and detected either via the Strep-tag II using a rabbit anti-strep-tag II polyconal antibody (GenScript, USA) or by using a scaffold-specific polyclonal rabbit antibody. In both cases an anti rabbit IgG-HRP conjugate (Abcam, UK) was employed as secondary detection antibody.

The target of assay [2] is T1, C-terminal biotinylated human …. Nature of the assay: HT-screening ELISA, reverse ELISA and competition ELISA; T7- and Strep-tagged clone in crude lysate. How it is done: Lipocalin muteins were selected in a HT-screening ELISA. Therein, NGAL variants equipped with a T7 detection tag (Novagen) as well as a Strep-tag II affinity tag (IBA) were soluble expressed in a 96 well microtiter plate using the E. coli strain TG1/F with phNGAL 101. This vector corresponds to phNGAL 98 (SEQ ID NO: 31) with an N-terminal T7 tag consisting of 11 amino acids ([…]) (SEQ ID NO: 34, see also FIG. 4B). Lipocalin mutein expression was induced overnight at 22° C. at 700 rpm with anhydrotetracycline (0.2 μg/ml) at an OD₅₅₀ of 0.6. […] To minimize non-specific binding in the subsequent ELISA screen, the crude cell lysates were supplemented with 2% w/v BSA and 0.1% v/v Tween 20 and tested in ELISA for binding to human Hepcidin-25. Therefore, soluble C-terminal biotinylated human Hepcidin-25 was immobilized on wells of black Fluotrac 600 ELISA plates (Greiner; 384 well) with 1 μg/ml via capturing by Neutravidin (5 μg/ml, Thermo Scientific). Neutravidin, Streptavidin, 5 μg/ml each, and 3% milk were used as negative control. Plates were blocked with PBST/0.1 containing 2% w/v BSA, and subsequently incubated with the bacterial cell extract for 1 h at room temperature plates were washed five times and bound Lipocalin muteins were detected via an anti-T7 monoclonal antibody-HRP conjugate (Novagen), diluted 1:10.000 in PBST/O 1. Therefore, QuantaBlu™ (Pierce; 1:2 diluted in PBS/T 0.1%) was used as fluorogenic HRP substrate. After 45 min of signal development at room temperature fluorescence was excited at a wavelength of 320 nm (±12.5 nm) and measured at 430 nm (±17.5 nm) in a GENiosPlus plate reader (Tecan).
In a reverse ELISA approach soluble expressed muteins from the crude cell lysate were captured in ELISA plates via their T7-tag following incubation with varying amounts of C-terminal biotinylated hHepcidin to reach target-limiting conditions in order to differentiate the muteins by their affinity. Binding of the target was detected via Extravidin-HRP conjugate (Sigma). One could compete for mutein binding by the addition of 100 nM non-biotinylated human Hepcidin-25 indicating, that the muteins bind the non-modified hHepcidin-25 as well.
(ELISA stands for enzyme-linked immunosorbent assay.)

Assay [3] addresses T2, synthetic non-modified human Hepcidin-25 (human, not fully specified).
T2 construct: also called hHepcidin-25; non-biotinylated human Hepcidin-25
T2 peptide: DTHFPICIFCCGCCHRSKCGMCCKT
Nature of the assay: SPR (Biacore T100), mutein amine-coupled to CM5 chip, hepcidin as analyte, 1:1 model. As for the experimental part: Lipocalin muteins were immobilized to a CM5 sensor chip using standard amine chemistry. The surface of the chip was activated using EDC and NHS. Subsequently, 20 μg/mL lipocalin mutein solutions in 10 mM sodium acetate pH 4.5 (60 μg/mL in 10 mM sodium acetate pH 4.0 for peglyted lipocalin mutein) were applied at a flow rate of 5 μL/min until a surface density of 500-700 resonance units (RU) for non-modified lipocalin muteins and of approximately 1600 RU for pegylated lipocalin with the sequence of SEQ ID NO: 13 was achieved. Residual activated groups were saturated with ethanolamine. The reference channels were treated with EDC/NHS following ethanolamine (blank immobilization). All reagents and materials were purchased from GE Healthcare.
Serial dilutions of human and cynomolgus Hepcidin-25 in running buffer (HBS-EP+, GE Healthcare, BR-1006-68) were applied to the prepared surface. The following parameters were used for the binding assay, contact time 60 s, dissociation time 180-360 s, flow rate 30 μL/min. All measurements were performed on a Biacore T100 instrument (GE Healthcare) at 25° C.
Data were evaluated with Biacore T100 Evaluation software (V 2.0.1). Double referencing was used. The 1:1 Binding model (Langmuir) was used to fit the raw data.

B1: lipocalin mutein of SEQ ID NO: 3 (designed binder)
chain: QDSTSDLIPAPPLSKVPLQQNFQDNQFHGKWYVVGVAGNGLLREDKDPLKMHATIYELKEDKSYNVTRVLFVRKKCRYYISTFVPGSQPGEFTLGRIKSEPGRTSFLVRVVSTNYNQHAMVFFKMVWQNREVFWITLYGRTKELTSELKENFIRFSKSLGLPENHIVFPVPIDQCIDG
notes: Purified with C-terminal Strep-tag II; also called hNGAL mutein; Lcn2 mutein; not shown: C-terminal Strep-tag II encoded by phNGAL98
As to B1, the binding result in assay [1] was “binds”.

B2: lipocalin mutein of SEQ ID NO: 10 (designed binder)
chain: QDSTSDLIPAPPLSKVPLQQNFQDNQFHGKWYVVGLAGNEILREDKDPMKMWATIYELKEDRSYNVTIVMFLAKKCEYLFQTFVPGSQPGEFTLGDIKSSPGRTSGLVRVVSTNYNQHAMVFFKVVWQNREVFWITLYGRTKELTPELKENFIRFSKSLGLPENHIVFPVPIDQCIDGF
notes: as for B1
Consider B2, for which the binding result in assay [2] is “binds”.

B3: lipocalin mutein of SEQ ID NO: 1 (designed binder)
chain: QDSTSDLIPAPPLSKVPLQQNFQDNQFHGKWYVVGLAGNEVLREDKDPMKMWATIYELEEDKSYNVTIVMFLAKKCEYLFQTFVPGSQPGEFTLGDIKSSPGRTSGLVRVVSTNYNQHAMVFFKTVWQNREVFWITLYGRTKELTSELKENFIRFSKSLGLPENHIVFPVPIDQCIDG
notes: also called hNGAL mutein; Lcn2 mutein; not shown: C-terminal Strep-tag II encoded by phNGAL98
For the molecule B3, the binding result in assay [1] and in assay [3] was “binds” throughout.

B4: lipocalin mutein of SEQ ID NO: 8 (designed binder)
chain: QDSTSDLIPAPPLSKVPLQQNFQDNQFHGKWYVVGLAGNEVLREDKDPMKMWATIYELKEDKSYNVTIVMPLAEKCEYLFQTFVPGSQPGEFTLGGIKSGPGRTSGLVRVVSTNYNQHAMVFFKVVWQNREVFWVTLYGRTKELTSELKENFIRFSKSLGLPENHIVFPVPIDQCIDG
notes: as for B1
On to B4, for which the binding result in assay [2] and in assay [3] was “binds” throughout.

B5: lipocalin mutein of SEQ ID NO: 9 (designed binder)
chain: QDSTSDLIPAPPLSKVPLQQNFQDNQFHGKWYVVGLAGNEVLREDKDPMKMWATIYELKEDKSYNVTIVMSLAKKCEYLFQTFVPGSQPGEFTLGDIKSSPGRTSGLVRVVSTNYNQHAMVFFKVVWQNREVFWITLYGRTKELTSGLKENFIRFSKSLGLPENHIVFPVPIDQCIDG
notes: as for B1
Take B5: in assay [2], the binding result was “binds”.

B6: lipocalin mutein of SEQ ID NO: 11 (designed binder)
chain: QDSTSDLIPAPPLSKVPLQQNFQDNQFHGKWYVVGLAGNEILREDKDPMKMWATIYELKEDKSYNVTIVMFLAKKCEYLFQTFVPGSQPGEFTLGDIKSSPGRTSGLVRVVSTNYNQHAMVFFKVVWQNREVFWITLYGRTKELTSGLKENFIRFSKSLGLPENHIVFPVPIDQCIDG
notes: as for B1
As to B6, the binding result in assay [2] is “binds”.

B7: lipocalin mutein of SEQ ID NO: 12 (designed binder)
chain: QDSTSDLIPAPPLSKVPLQQNFQDNQFHGKWYVVGLAGNEVLREDKDPMKMWATIYELKEDKSYNVTIVMFLAEECEYLFQTFVPGSQPGEFTLGDIKSSPGRTSGLVRVVSTNYNQHAMVFFKVVWQNREVFWITLYGRTKELTSELKKNFIRFSKSLGLPENHIVFPVPIDQCIDG
notes: as for B1
B7: in assay [2], the binding result is recorded as “binds”.

B8: lipocalin mutein of SEQ ID NO: 2 (designed binder)
chain: QDSTSDLIPAPPLSKVPLQQNFQDNQFHGKWYVVGTAGNSILREDKDPQKMWATIYELKEDKSYNVTRVFFEGKKCRYVIETFVPGSQPGEFTLGKIKSAPGGTSILVRVVSTNYNQHAMVFFKVVWQNRELFWITLYGRTKELTSELKENFIRFSKSLGLPENHIVFPVPIDQCIDG
notes: as for B1
For B8, the binding result in assay [1] is reported as “binds”.

B9: lipocalin mutein of SEQ ID NO: 4 (designed binder)
chain: QDSTSDLIPAPPLSKVPLQQNFQDNQFHGKWYVVGVAGNEMLREDKDPLKMLATIYELKEDKSYNVTRVMFEYKKCVYLIETFVPGSQPGEFTLGTIKSVPGLTSGLVRVVSTNYNQHAMVFFKRVWQNREVFWITLYGRTKELTSELKENFIRFSKSLGLPENHIVFPVPIDQCIDG
notes: as for B1
As to B9, the binding result in assay [1] is listed as “binds”.

B10: lipocalin mutein of SEQ ID NO: 6 (designed binder)
chain: QDSTSDLIPAPPLSKVPLQQNFQDNQFHGKWYVVGLAGNEILREDKDPLKMWATIYELKEDKSYNVTRVQFGEKKCGYGIETFVPGSQPGEFTLGSIKSVPGGTSRLVRVVSTNYNQHAMVFFKFVWQNREVFWITLYGRTKELTSELKENFIRFSKSLGLPENHIVFPVPIDQCIDG
notes: as for B1
With B10, the binding result in assay [1] is recorded as “binds”.

B11: lipocalin mutein of SEQ ID NO: 5 (designed binder)
chain: QDSTSDLIPAPPLSKVPLQQNFQDNQFHGKWYVVGAAGNSLLREDKDPMKMWATIYELKEDKSYNVTRVNFGGKKCSYLIETFVPGSQPGEFTLGSIKSRPGATSVLVRVVSTNYNQHAMVFFKLVTQNREVFWITLYGRTKELTSELKENFIRFSKSLGLPENHIVFPVPIDQCIDG
notes: as for B1
Consider B11, for which the binding result in assay [1] is reported as “binds”.

B12: lipocalin mutein of SEQ ID NO: 7 (designed binder)
chain: QDSTSDLIPAPPLSKVPLQQNFQDNQFHGKWYVVGLAGNRVLREDKDPQKMFATIYELKEDKSYNVTGVDFRTKKCLYSIGTFVPGSQPGEFTLGVIKSQPGWTSYLVRVVSTNYNQHAMVFFKTVWQNREVFWITLYGRTKELTSELKENFIRFSKSLGLPENHIVFPVPIDQCIDG
notes: as for B1
In the case of B12, the binding result in assay [1] was “binds”.

Values taken from patent US20150291675A1 (published 2015).
